From patent US20230002496A1 (STAIDSON BEIJING BIOPHARMACEUTICALS, published 2023)
Positions count from the first letter of the chain named.

B1: E35-scFv HT30R (scFv, V domains shown)
VH: QMQLVQSGAEVKKPGASVKVSCKVSGYTLRELSIHWVRQAPGKGLEWMGGFDPEDGETIYAQKFQGRVTMTGDTSTDTAYLELSSLRSEDTALYYCATGRYTSLATTYGFDYWGQGTLVTVSS
VL: EIVMTQSPATLSLSPGERATLSCRASQSVSSYLAWYQQKPGQAPRLLIYGASSRATGIPDRFSGSGSGTDFTLTISRLEPEDFAVYYCQQYDNWPYTFGQGTKLEIK
B2: E35-scFv HT28E (scFv, V domains shown)
VH: B1 VH with T28E, R30T
VL: B1 VL
B3: E35-scFv LS26N (scFv, V domains shown)
VH: B1 VH with R30T
VL: B1 VL with S26N
B4: E35-scFv HT28G (scFv, V domains shown)
VH: B1 VH with T28G, R30T
VL: B1 VL
B5: E35-scFv HT28M (scFv, V domains shown)
VH: B1 VH with T28M, R30T
VL: B1 VL
B6: E35-scFv HT28H (scFv, V domains shown)
VH: B1 VH with T28H, R30T
VL: B1 VL
B7: E35-scFv HT28L (scFv, V domains shown)
VH: B1 VH with T28L, R30T
VL: B1 VL
B8: E35-scFv HT28V (scFv, V domains shown)
VH: B1 VH with T28V, R30T
VL: B1 VL
B9: E35-scFv HT28C (scFv, V domains shown)
VH: B1 VH with T28C, R30T
VL: B1 VL
B10: E35-scFv HT28A (scFv, V domains shown)
VH: B1 VH with T28A, R30T
VL: B1 VL
B11: E35-scFv HT28P (scFv, V domains shown)
VH: B1 VH with T28P, R30T
VL: B1 VL
B12: E35-scFv HT28N (scFv, V domains shown)
VH: B1 VH with T28N, R30T
VL: B1 VL
B13: E35-scFv HT28S (scFv, V domains shown)
VH: B1 VH with T28S, R30T
VL: B1 VL
B14: E35-scFv LS26L (scFv, V domains shown)
VH: B1 VH with R30T
VL: B1 VL with S26L
B15: E35-scFv HT28K (scFv, V domains shown)
VH: B1 VH with T28K, R30T
VL: B1 VL
B16: E35-scFv HT28W (scFv, V domains shown)
VH: B1 VH with T28W, R30T
VL: B1 VL

molecular target: T1, human GM-CSFRα, full length on cells (human, UniProt P15509 23-400); test: cell-based or functional assay
T1 sequence: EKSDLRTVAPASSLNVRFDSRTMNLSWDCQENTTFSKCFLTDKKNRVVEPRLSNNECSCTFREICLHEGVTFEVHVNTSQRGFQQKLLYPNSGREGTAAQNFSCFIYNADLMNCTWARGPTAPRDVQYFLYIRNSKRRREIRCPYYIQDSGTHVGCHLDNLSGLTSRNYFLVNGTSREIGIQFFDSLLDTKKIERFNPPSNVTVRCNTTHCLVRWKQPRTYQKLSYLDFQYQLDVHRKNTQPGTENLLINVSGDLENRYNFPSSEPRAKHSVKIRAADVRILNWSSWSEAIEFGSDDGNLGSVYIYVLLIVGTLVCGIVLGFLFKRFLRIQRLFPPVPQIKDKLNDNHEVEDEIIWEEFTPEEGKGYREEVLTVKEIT

Row | IC50, TF-1 cell proliferation [µg/mL] | Binder
1 | 0.35 | B1
2 | 0.091 | B2
3 | 0.054 | B3
4 | 0.16 | B4
5 | 0.11 | B5
6 | 0.06 | B6
7 | 0.1 | B7
8 | 0.08 | B8
9 | 0.12 | B9
10 | 0.13 | B10
11 | 0.093 | B11
12 | 0.17 | B12
13 | 0.11 | B13
14 | 0.044 | B14
15 | 0.217 | B15
16 | 0.11 | B16
